Here are results for 1 substance from paper PMC7100586.

For the assay, the target named is clathrin heavy chain (Sus scrofa). As to the kind of experiment: cryo-EM structure.

As for clathrin heavy chain (natural protein), the stoichiometry N (commonly a count of units in the complex or per binding partner) was 3.
